According to PMC4714757, “Leishmania infantum Asparagine Synthetase A Is Dispensable for Parasites Survival and Infectivity” (PLoS Neglected Tropical Diseases, 2016):

Tests used:
[1] = molecular target: Leishmania infantum asparagine synthetase A, recombinant, poly-His-tagged (Leishmania infantum); assay: SEC; analytic size exclusion chromatography of purified recombinant LiAS-A on Superose 12 10/300GL, calibrated with standards (Kav against Log MW and Log Stokes radius); oligomeric state of the native protein
[2] = substrate: N[C@@H](CC(=O)O)C(=O)O; assay: colorimetric assay of Asn formation, steady state; format: biochemical, Leishmania infantum; details: other substrates in excess, 8.4 mM Mg2+, 85 mM Tris.HCl pH 7.6, 37°C
Excerpt: (§1) colorimetric assay of Asn formation, steady state on LiAS-A (Leishmania infantum asparagine synthetase A)

[3] = substrate: Nc1ncnc2c1ncn2[C@@H]1O[C@H](COP(=O)(O)OP(=O)(O)OP(=O)(O)O)[C@@H](O)[C@H]1O; assay: colorimetric assay of Asn formation, steady state; format: biochemical, Leishmania infantum; details: other substrates in excess, 8.4 mM Mg2+, 85 mM Tris.HCl pH 7.6, 37°C
Excerpt: as §1

[4] = substrate: NC(=O)CC[C@H](N)C(=O)O; assay: colorimetric assay of Asn formation, steady state; format: biochemical, Leishmania infantum; details: glutamine as nitrogen donor, other substrates in excess, 8.4 mM Mg2+, 85 mM Tris.HCl pH 7.6, 37°C
Excerpt: as §1

“Leishmania infantum asparagine synthetase A, recombinant, poly-His-tagged (enzyme)” gave a stoichiometry N [1] of 2.

B1: LiAS-A (Leishmania infantum asparagine synthetase A) (Leishmania infantum) (protein)
chain: MSSSPQEYIDLQTRILRVKTIFAEELASALNLIQVECPMLACVGDGTQDNLSGVEKAVQVHVKEIPGANYEVVHSLAKWKRMTLGNHRFPVGRGIFTNMRALRVEETLDNIHSVYVDQWDWERVIAPADRCLEYLQATVRSLYEVLRETESRLCTEFPDIAPILPDSIKFVHTEQLLKRYPELDPKSREREAVKKLGAVFLIGIGCKLSHGDHHDVRAPDYDDWSSPVSVDSSKIGFPTADDEKPSVNTIMSLQGLNGDILVYNPVLDDVLELSSMGIRVDQEALRRQLEITGTSDRLQCRWHQCVLNGDLPQTIGGGIGQSRTVMFMLRKRHIGEVQCSVWPHEVTAQYSLL
notes: full length, 353 residues, N-terminal 6xHis tag (pET28a) with no cleavage stated, E. coli BL21(DE3)
B1 was tested, and the Km [2] was 6210 ± 1150 µM, the kcat [2] was 9.19 ± 0.69 s⁻¹ and the Km [3] was 1470 ± 40 µM. The kcat [3] was 4.18 ± 0.02 s⁻¹, the Km [4] was 1710 ± 280 µM and the kcat [4] was 4.51 ± 0.19 s⁻¹.
